Here are results for one molecule from patent publication US20100129288A1.

The experiment deals with neurofascin on purified rat DRG neurons (rat) (UniProt P97685). The experiment is described as follows: cell-based or functional assay.
Sequence of UniProt P97685 (P97685 25-1240, form in doubt): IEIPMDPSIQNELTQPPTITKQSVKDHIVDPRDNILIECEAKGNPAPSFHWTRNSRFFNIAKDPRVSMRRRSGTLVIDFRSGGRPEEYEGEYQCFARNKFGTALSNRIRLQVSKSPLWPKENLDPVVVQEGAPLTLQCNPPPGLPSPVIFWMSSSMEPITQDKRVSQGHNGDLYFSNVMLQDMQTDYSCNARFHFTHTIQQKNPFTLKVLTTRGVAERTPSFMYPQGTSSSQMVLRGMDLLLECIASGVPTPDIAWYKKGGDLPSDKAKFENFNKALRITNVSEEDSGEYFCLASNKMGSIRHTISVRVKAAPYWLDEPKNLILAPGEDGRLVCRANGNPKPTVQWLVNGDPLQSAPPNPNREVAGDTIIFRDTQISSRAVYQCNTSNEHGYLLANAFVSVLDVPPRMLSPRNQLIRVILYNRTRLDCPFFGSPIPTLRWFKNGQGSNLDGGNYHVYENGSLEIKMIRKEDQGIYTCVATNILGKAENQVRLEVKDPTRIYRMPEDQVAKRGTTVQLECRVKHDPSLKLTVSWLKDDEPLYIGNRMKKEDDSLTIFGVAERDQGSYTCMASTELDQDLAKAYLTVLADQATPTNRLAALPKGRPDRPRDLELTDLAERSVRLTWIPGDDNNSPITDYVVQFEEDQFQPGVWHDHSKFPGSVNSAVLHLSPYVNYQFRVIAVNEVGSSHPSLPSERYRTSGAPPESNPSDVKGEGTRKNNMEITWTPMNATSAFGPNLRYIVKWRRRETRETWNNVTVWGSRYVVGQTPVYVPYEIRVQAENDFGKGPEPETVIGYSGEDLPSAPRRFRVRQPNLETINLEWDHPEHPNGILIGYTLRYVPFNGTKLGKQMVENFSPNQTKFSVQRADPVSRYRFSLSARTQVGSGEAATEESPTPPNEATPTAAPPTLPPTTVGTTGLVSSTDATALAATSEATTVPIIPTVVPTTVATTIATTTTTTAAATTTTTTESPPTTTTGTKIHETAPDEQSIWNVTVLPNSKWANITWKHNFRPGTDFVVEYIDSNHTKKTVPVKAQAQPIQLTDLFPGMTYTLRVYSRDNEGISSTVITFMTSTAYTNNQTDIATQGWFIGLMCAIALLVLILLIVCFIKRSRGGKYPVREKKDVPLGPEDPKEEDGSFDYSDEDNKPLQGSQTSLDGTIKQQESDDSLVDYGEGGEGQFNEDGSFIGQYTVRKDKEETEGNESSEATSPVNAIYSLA

B1: OLF-Fc (Fc-fusion protein containing the olfactomedin domain of gliomedin) (Fc fusion, part only; not given: human Fc, part only)
chain, part: NDDTLVGRADEKVNERHSPQTEPMITSIGNPAQVLKVKETFGTWLRESANRSDDRIWVTEHFSGIMVKEFEDLPALLNSSFTLLHLPHYFHGCGHAVYNNSLYYHKGGSNTIVRFEFGKETPQTLKLEDALYFDRKYLFANSKTYFNIAVDEKGLWIIYASSVDGSSILVAQLDERTFSVLRHINTTYPKSKAGNAFIAQGILYVTDTKDTRVTFAFDLLRGKQINANFGLRMSQSVLAMLSYNMRDQHLYSWEDGHLMLYPVHFSSTAPS
B1 gave an OLF-Fc clusters co-localized with neurofascin clusters of 96%.
